Laboratory results: the DeepSol protein solubility set

Experiment: soluble on expression in E. coli; label from the status in PepcDB or PDB records

Sequence: MIIRETERLILREWKESDRDLFREINADEKVMEFFPFRRSHAEADAVLETINGMIRGSGYGFYAMELRETGEVMGFCGISPVMNLDPPFPIGTMEIGWRLATRFWGHGYVTEAAQSLLVMAFDEKETPEIVSFAVHDNHRSTAVMERIGLRRDPSRDFDHPRVPEETHPHLRPHVTYALTLEEWRAR
- soluble on expression in E. coli: not soluble

Sequence: MIAIVAGNSAGVSRVANQPLEHEPSYWAATAEIEQPSPALEHDLDVDVAIIGAGYTGLSTAYHLKKDHGITATVVEANRIGWGCSGRNGGFAMIGVGKDTYNAWISKVGLEQARKTFEFGRDAVRTLRTVLQENNINAASGNEGFLLTAHRRARISELIETQRQLKHYFGFDTEYLDAHDVRTHYLSGTQIFGALHYPEHFPIHPMRYAQGLGRRVRQLGVPIYENSPVNTWRRAGRLHELLTPRGVVRAKKVVIATNGYTPDGLHPIVRGRLMNVLSNIVVTAPLSEGQLAATRWQTHKMVVDTRNLRSYFRLLEDNRIMFGARGGISDTAASRATMKAWLLTQLAKQFPGLGAIGADYFWQGWVAIPRDKGPHIHVADNGSVAYWLGCTGTGVAMSTHAGKLLADSLATERRPDVPALVGAPLPRYEIPALRKLYQRAAYSYFYLKDEFLLEHHHHHH
- soluble on expression in E. coli: not soluble

Sequence: MSFLVLPPEVNSALMFAGAGSGPTLAAAAAWDGLAAELGQAANSFSSATAALADTAWQGPAATAMAAAAAPYASWLSTAATRALSAAAQAKAAAAVYEAARAATVDPLLVAANRHQLVSLVLSNLFGQNAPAIAATEAAYEQLWAADVAAMVSYHSGASAVAAQLAPWAQAVRALPNPTAPALASGPAALAIPALGIGNTGIGNIFSIGNIGDYNLGNGNTGNANLGSGNTGQANLGSGNTGFFNFGSGNTANTNFGSGNLGNLNLGSGNDGNGNFGLGNIGDGNRGSGNVGSFNFGTANAGSFNVGSANHGSPNVGFANLGNNNLGIANLGNNNLGIANLGNNNIGIGLTGDNMIGIGALNSGIGNLGFGNSGNNNIGLFNSGNNNIGFFNSGDSNFGFFNSGDTNTGFGNAGFTNTGFGNAGSGNFGFGNAGNNNFGFGNSGFENMGVGNSGAYNTGSFNSGTLNTGDLNSGDFNTGWANSGDINTGGFHSGDLNTGFGSPVDQPVMNSGFGNIGTGNSGFNNSGDANSGFQNTNTGAFFIGHSGLLNSGGGQHVGISNSGTGFNTGLFNTGFNNTGIGNSATNAAFTTTSGVANSGDNSSGGFNAGNDQSGFFDG
- soluble on expression in E. coli: not soluble

Sequence: QSKDGSVRHSGDNRTGQGDGDDETITVDLTRLPAAVTTVIFSVNNYTGQDFGQVENAYCRLVNTQGGQEIARYNLSVQGNHSAMILASLKRQGGDWAMTAIGAPSR
- soluble on expression in E. coli: not soluble

Sequence: MPFKLSPDCIVLAEPEKLHYPGDTVSGHIVLKFEKFSTCRAITLTVKGKAETGWDNVTKVGQWTYFNESGVLWKAEMSENRIEPGTHRIPFDYTVPENIPQSFEGPFGFIRFYIKVHMDRPHALDQCVKKEFLVTQKPTVVSKKHLGPEHIIRYCQKLNCNRGEIYFEAQLSNRIIFFDDPISLIIKIKNCSSRTIKKISLEAFQRIEYYSTTSACRKTHSVLIGKTGKSELKIRNDEIAISTFSMKFKEPATPSFASELIQVSYVLLVNLFTDGFWAAPLVFPVEFEVGKKSDVGTEDEETCDGLINFDED
- soluble on expression in E. coli: not soluble

Sequence: MSLESIKVGMIGYKFMGKAHSHAYRDLPMFFPDHLRPEMKVICGRNPEGVAQAASQYGWEEYTTNWKDLIRRDDIDLIDINAPSDVHKEITLAAAQAGKHIFCEKPLALTLQDSRHMLEAVEAAGVKHMVGFNYRFTPAVLLAKKLIAEGRLGDIYHFRAWFLQDWIVAPDFPLVWRLQKDIAGSGAHGDLGAHLIDMAHFLIGDITEVIGMNETFIKERPLPTEMTGLSGRGSNDHTVPKGPVTVDDATLFMARFANGALGSFEATRFATGHRSTNSFEINGSKGSVIFDFERLNELQVYFTDDQDDVQGFRRVLATDGAHAYSDRWWPAGHTIGYEHTFIHEIAELMESLQEGRQPVPNFKDGVKCQQVLEAVDLSIAKREWIQVSEGHHHHHH
- soluble on expression in E. coli: soluble

Sequence: MGSDKIHHHHHHMIMEELAKKIEEEILNHVREPQIPDREVNLLDFGARGDGRTDCSESFKRAIEELSKQGGGRLIVPEGVFLTGPIHLKSNIELHVKGTIKFIPDPERYLPVVLTRFEGIELYNYSPLVYALDCENVAITGSGVLDGSADNEHWWPWKGKKDFGWKEGLPNQQEDVKKLKEMAERGTPVEERVFGKGHYLRPSFVQFYRCRNVLVEGVKIINSPMWCVHPVLSENVIIRNIEISSTGPNNDGIDPESCKYMLIEKCRFDTGDDSVVIKSGRDADGRRIGVPSEYILVRDNLVISQASHGGLVIGSEMSGGVRNVVARNNVYMNVERALRLKTNSRRGGYMENIFFIDNVAVNVSEEVIRINLRYDNEEGEYLPVVRSVFVKNLKATGGKYAVRIEGLENDYVKDILISDTIIEGAKISVLLEFGQLGMENVIMNGSRFEKLYIEGKALLK
- soluble on expression in E. coli: not soluble

Sequence: MAMSKVKSITRESWILSTFPEWGSWLNEEIEQEQVAPGTFAMWWLGCTGIWLKSEGGTNVCVDFWCGTGKQSHGNPLMKQGHQMQRMAGVKKLQPNLRTTPFVLDPFAIRQIDAVLATHDHNDHIDVNVAAAVMQNCADDVPFIGPKTCVDLWIGWGVPKERCIVVKPGDVVKVKDIEIHALDAFDRTALITLPADQKAAGVLPDGMDDRAVNYLFKTPGGSLYHSGDSHYSNYYAKHGNEHQIDVALGSYGENPRGITDKMTSADMLRMGEALNAKVVIPFHHDIWSNFQADPQEIRVLWEIKKDRLKYGFKPFIWQVGGKFTWPLDKDNFEYHYPRGFDDCFTIEPDLPFKSFL
- soluble on expression in E. coli: not soluble

Sequence: MGSDKIHHHHHHMTAQFDDATLTKRLAKGTGEILKGVRNVGLLRGRELGEAGDDLAQNWIARVLEQHRPDDGFLSEEAADNPERLGKDRVWIIDPLDGTKEFATGRQDWAVHIALVENGVPTHAAVNLPDLGVVFHSSEVRAVGGPYAKKIAISHNRPPAVATHIAESLGFTAEPMGSAGAKAMHVLLGDYDAYIHAGGQYEWDSAAPVGVSLAAGLHCSRLDGTPLNYNNKDTYLPDVLICRPELADDILTMAAAFREENGSY
- soluble on expression in E. coli: not soluble

Sequence: MGSSHHHHHHSSGENLYFQGHMDVLASGEKSRMLFERTKELFPGGVNSPVRAAVKPYPFYVKRGEGAYLYTVDGARIVDLVLAYGPLILGHKHPRVLEAVEEALARGWLYGAPGEAEVLLAEKILGYVKRGGMIRFVNSGTEATMTAIRLARGYTGRDLILKFDGCYHGSHDAVLVAAGSAAAHYGVPTSAGVPEAVARLTLVTPYNDVEALERVFAEYGDRIAGVIVEPVIANAGVIPPRREFLAALQRLSRESGALLILDEVVTGFRLGLEGAQGYFNIEGDIIVLGKIIGGGFPVGAVAGSREVMSLLTPQGKVFNAGTFNAHPITMAAGLATLKALEEEPVYSVSREAAKALEEAASEVLDRTGLPYTINRVESMMQLFIGVEEVSNAAQARKADKKFYVKLHEEMLRRGVFIAPSNLEAVFTGLPHQGEALEIAVEGLRSSLKTVLGS
- soluble on expression in E. coli: soluble

Sequence: MPLVLDLARPVSEEELRRLSELNPGYQWERSPEGRLWVSPTGGESGRRSLQLAYQLARWNEERGLGVVFDSSTGFKFPDGSILSPDAAFVERGAWEALSEAEREGFPPLAPKAVFEVRSASQDPEELRAKMGIYLRNGVLLGVLVDPYARAVEVFRPGKPPLRLEGVERVSLDPELPGFALSLPPLW
- soluble on expression in E. coli: soluble

Sequence: SLTRAVAALLPDGKRLHLQHGPIDLIIGAEGGPGAREAAFVTATARFETVLAELVGELPLLKTELAPDAPLPLGPVARRMDTACRPLMALRLTRMAAVAGAVADEVLAAMLSSTPLTRAYVNNGGDIALHLTGDTRFTLAMATPDGRDLGRISLGTGDRIGGIATSGLGGRSLSLGIAESVTVLAPSAAGADAAATLIANATDLPGHPAIRRAPANTVKDDSDLGQRPVVTHCGPLDRNEVLHALENGRKLAVEMIANGHIRSAHLSLRGQSCQAGAIPVIAPERRLALA
- soluble on expression in E. coli: soluble

Sequence: MGSDKIHHHHHHMNRDTERTTMEGEHLYSPKNDDAPPAPAPDSPASLLDELIEAARVKRDEEAYPITRHGIEAFVAHLARPKRPIETVSQATIDDMIAEIDRKLCRQVDAILHHPDFQQLESTWRSLKFLVERTDFRENIKIQFLDVGKAALLDDFDDSPDITKSGLYQKVYAAEYGQFGGQPIGAIVANYTFGPGAQDVKLLQYVASTSAMAHTPFIAAAGPAFFGIDSFGKLPNVKDLASLFEGPQFAKWNAFRESEDARYVGLTLPRFLLRLPYGANTTPVKRFNYDERVDGGDADFLWGNAAFAFATRLTASFADYRWCANVIGPKGGGTVADLPLYAYEAMGEIQNKIPTDVLISERREFELAEQGFIALTMRKHSDNAAFFSANSTQKPKFFGISKEGKDAELNYRLGTQLPYIFVVNRLAHYIKVIQRENIGTWKERGDLEQELNQWIRQYVADMDNPTEGVRSRRPLRQAEIFVSDVEGEPGWYRVDMKVRPHFKYMGASFTLSLVGKLEKR
- soluble on expression in E. coli: not soluble

Sequence: MGSDKIHHHHHHDDDNTANPAEEVVKASKKHDTAILLCTFGSTFKESIKTYDATLADFQNAFPDADIYLSFTSRTCVNRVEAETGIARYQPDLWLQALGNAGYKKVAVQSLHIIPGEEYLSLMNTDVKKKFMIESFPSVQVVKSPCLVYNEEDVEAVAKVLYSHYSDKLADNKNILLLMGHGNPDKNYNANTKYTETEEAMQALAANKNVFVGTVDYGDMLFWPEEGEPNEECVYSKLTKYCEDHNLKPEEITISLAPFMSIAGDHAHNDLWGIEEGDDFSAAAPNADACWRLKLLKMGFKIDTKESHNGSLENCKIIGLGDYDAVRQIWVNHLKALYNDAEAWETGEDYQ
- soluble on expression in E. coli: not soluble

Sequence: ASFPFGDFTADTKGTSDIAYSFRNDISGTGGLIKKGGSQLQLHGNNTYTGKTIIEGGSLVLYGNNKSDMRVETKGALIYNGAASGGSLNSDGIVYLADTDQSGANETVHIKGSLQLDGKGTLYTRLGKLLKVDGTAIIGGKLYMSARGKGAGYLNSTGRRVPFLSAAKIGQDYSFFTNIETDGGLLASLDSVEKTAGSEGDTLSYYVRRGNAARTASAAAHSAPAGLKHAVEQGGSNLENLMVELDASESSATPETVETAAADRTDMPGIRPYGATFRAAAAVQHANAADGVRIFNS
- soluble on expression in E. coli: not soluble

Sequence: MTSPITLDALKVLDAIERKKSFAAAADELFRVPSAISYTVNKLEDDLGIALFDRSKRKAELTSVGIMLVEQGRLILKATDELTHMAKQSAEGWELELRICIDSILLFQPIYTLIAQFQQEYPWINIRVTEEVFGGTWDALVAGRSDLIIGATGEPYNSDFSLYKLGNVDFVFVVAKDHALIKEQQPLSNEIIKKYPSVVVADSSRNLPGRSAGLLDGQSRITVSSIEKKIEAQLLGLGVGFLPIHRIKSQLESGQLVILALETTENRNSELCMAWRNDNQGKALAWFVSNIQQMAVKLI
- soluble on expression in E. coli: not soluble

Sequence: LVGDFERELGRLLSPFELEDLQKTLQEDQTDPDIVRAALREAVFNGKTSWNYINAILRNWRREGLTTLRQIEERKQAREDNQMKDLAISDDFKNAMNLWE
- soluble on expression in E. coli: not soluble

Sequence: MTKPIIGITANQRLNMALDNLPWSYAPTGFVQAVTQSGGLPLLLPIGDEAAAKTYVSMVDKIILIGGQNVDPKYYQEEKAAFDDDFSPERDTFELAIIKEAITLKKPILGICRGTQLMNVALGGNLNQHIDSHWQEAPSDFLSHEMIIEPDSILYPIYGHKTLINSFHRQSLKTVAKDLKVIARDPRDGTIEAVISTNDAIPFLGVQWHPELLQGVRDEDLQLFRLFVNDF
- soluble on expression in E. coli: not soluble

Sequence: YKEFKLKRVYYSGYIPINHEDHALPAVGSAPPLLRENRLYQSDWLMRFYGFAADEIVNPQHPNLDLDVDPKLGWALRHPEQFPVDINRADYRMILRVPGIGVRSAKKIMHARRFGALRIDQLKRMGVAYSRAQHFIYCID
- soluble on expression in E. coli: not soluble
